Measured values from PMC7617670, “Activity Regulation of a Glutamine Amidotransferase Bienzyme Complex by Substrate-Induced Subunit Interface Expansion” (ACS catalysis, 2025).
Positions count from the first letter of the chain named. In names and notes the source's numbering stands.

Columns and labels:
Assay in all cases: ITC; 250 μM PabB titrated into 25 μM PabA in the cell; 25 °C; 50 mM Tris/HCl pH 7.5, 50 mM KCl, 5 mM MgCl2; without Cho and Gln; one set of sites
Conditions in all cases: both partners purified
PabB variant bY210F = target: T1, PabB variant bY210F (Escherichia coli, UniProt P05041 1-453, bY210F)
T1 construct: PabB, synthase subunit of ADCS, E. coli; construct as m2 with one exchange; Made by QuikChange mutagenesis from the construct of m2; source: E. coli BL21-Gold (DE3), purified (Ni-IMAC, preparative gel filtration)
T1 sequence: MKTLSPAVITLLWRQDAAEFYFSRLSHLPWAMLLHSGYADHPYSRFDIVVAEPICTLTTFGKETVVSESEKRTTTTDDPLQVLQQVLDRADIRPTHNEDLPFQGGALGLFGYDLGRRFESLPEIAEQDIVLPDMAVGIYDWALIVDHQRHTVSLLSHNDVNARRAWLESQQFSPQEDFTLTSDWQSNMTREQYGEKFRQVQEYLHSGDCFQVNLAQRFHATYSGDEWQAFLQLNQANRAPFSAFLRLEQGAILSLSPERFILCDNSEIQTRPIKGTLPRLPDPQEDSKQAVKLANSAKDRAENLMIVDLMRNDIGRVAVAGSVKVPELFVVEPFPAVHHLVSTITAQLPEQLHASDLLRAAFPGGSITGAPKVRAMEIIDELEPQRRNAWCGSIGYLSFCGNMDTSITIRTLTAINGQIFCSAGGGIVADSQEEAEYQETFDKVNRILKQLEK

PabB variant bG207P = target: T2, PabB variant bG207P (Escherichia coli, UniProt P05041 1-453, bG207P)
T2 construct: PabB, synthase subunit of ADCS, E. coli; construct as m2 with one exchange; Made by QuikChange mutagenesis from the construct of m2; source: E. coli BL21-Gold (DE3), purified (Ni-IMAC, preparative gel filtration)
T2 sequence: T1 sequence with G207P, F210Y

PabB variant bE119D = target: T3, PabB variant bE119D (Escherichia coli, UniProt P05041 1-453, bE119D)
T3 construct: PabB, synthase subunit of ADCS, E. coli; construct as m2 with one exchange; Made by QuikChange mutagenesis from the construct of m2; source: E. coli BL21-Gold (DE3), purified (Ni-IMAC, preparative gel filtration)
T3 sequence: T1 sequence with E119D, F210Y

B1: PabA, glutaminase subunit of aminodeoxychorismate synthase (ADCS) from Escherichia coli, wild type (enzyme)
chain: MILLIDNYDSFTWNLYQYFCELGADVLVKRNDALTLADIDALKPQKIVISPGPCTPDEAGISLDVIRHYAGRLPILGVCLGHQAMAQAFGGKVVRAAKVMHGKTSPITHNGEGVFRGLANPLTVTRYHSLVVEPDSLPACFDVTAWSETREIMGIRHRQWDLEGVQFHPESILSEQGHQLLANFLHR
notes: PabA, class I glutaminase subunit of ADCS, E. coli; the gene was cloned into pET28a; Form used for SEC, ITC and kinetics; TEV cleavage is told only of the proteins used for crystallization; The G5H-Tag stands between the TEV site and the start methionine of PabA; also called wt PabA; ADCS glutaminase subunit; source: E. coli BL21-Gold (DE3), purified (Ni-IMAC, preparative gel filtration)
A Kd (PabB variant bY210F) of 530 nM, a Kd (PabB variant bG207P) of 1700 nM and a Kd (PabB variant bE119D) of 840 nM were found for B1 in this work.
